These results are taken from article PMC12489471, “A multi-dentate, cooperative interaction between endo- and exo-ribonucleases within the bacterial RNA degradosome” (Nucleic Acids Research, 2025).

This data set in a line: SEC-MALLS molar mass of PNPase and PNPase/RNase E complexes. It is filed as physicochemical. How it is done: Estimation of molar masses of PNPase and the various PNPase/RNase E complexes was carried out by size-exclusion chromatography with multi-angle laser light scattering (SEC-MALLS). Proteins (100 μl at ∼1 mg/ml concentration) were loaded onto a Superdex 200 10/300 Increase GL SEC column (GE Healthcare) at 0.5 ml/min using an AKTA Purifier FPLC system ([…]). Chromatograms were acquired using UNICORN software (GE Healthcare) at 280 nm. The eluent from the S200 column was analysed with an online DAWN HELEOS II MALLS instrument with eight detectors (Wyatt Technology), followed by an Optilab T-rEX differential refractometer (Wyatt Technology) at 25°C. Data collection and analysis were performed using ASTRA 6 software (Wyatt Technology). Eluted peaks from SEC column were evaluated by Zimm Plot, using a dn/dc value of 0.1850 ml/g. Bovine serum albumin was used as a standard to confirm the system performance (Supplementary Table S1).

Where [1] appears, read: Superdex 200, 25°C, buffer A (with 0.01% w/v b-DDM).
The mark [2] stands for this setting: Superdex 200, 25°C, buffer A: 50 mM Tris pH 7.5, 100 mM NaCl, 100 mM KCl, 0.01% w/v b-DDM, 1 mM TCEP.
Setting [3] is: Superdex 200, 25°C, buffer B: A w/o bDDM.
Where [4] appears, read: buffer A (with 0.01% w/v b-DDM).
The mark [5] stands for this setting: buffer A, expected: PNPase trimer, or trimer:RNase E 1:1 ratio.
Where [6] appears, read: buffer B, expected: trimer:RNase E 1:1 ratio for complexes.
Where [7] appears, read: buffer B: A w/o bDDM, second line in buffer B.

As for “Bovine serum albumin: standard to confirm the system performance [reference compound]”, the “Mw weight-averaged solute molar mass” value under setting [1] is recorded as 63,270 Da, the “Mw weight-averaged solute molar mass” value under setting [3] is recorded as 63,350 Da and the “Mw weight-averaged solute molar mass” value under setting [7] is on record as 64,200 Da. Moreover, the “Mn number-averaged solute molar mass” value runs as follows: under setting [2], 63,250 Da; under setting [3], 63,300 Da; under setting [7], 63,900 Da. For the same molecule, the “Polydispersity (Mn/Mw)” value under setting [4] stood at 1.000, the “Polydispersity (Mn/Mw)” value (buffer B: A w/o bDDM) is on record as 1.001 and the “Polydispersity (Mn/Mw)” value under setting [7] came to 1.005. Besides, the “Difference Mn from expected mass” value runs as follows: under setting [5], 4.8%; under setting [6], 4.7%; (buffer B, second line in buffer B) 3.8%.

As for “E. coli PNPase: polynucleotide phosphorylase, trimer”, the “Mw weight-averaged solute molar mass” value under setting [1] is given as 204,900 Da. In addition, the “Mn number-averaged solute molar mass” value under setting [2] was 204,600 Da. For the same molecule, the “Polydispersity (Mn/Mw)” value under setting [4] is 1.001. Besides, the “Difference Mn from expected mass” value under setting [5] came to 11.5%.

B1: E. coli PNPase core, lacking S1 and KH domains: truncated PNPase lacking the KH and S1 domains (protein)
chain: MLNPIVRKFQYGQHTVTLETGMMARQATAAVMVSMDDTAVFVTVVGQKKAKPGQDFFPLTVNYQERTYAAGRIPGSFFRREGRPSEGETLIARLIDRPIRPLFPEGFVNEVQVIATVVSVNPQVNPDIVAMIGASAALSLSGIPFNGPIGAARVGYINDQYVLNPTQDELKESKLDLVVAGTEAAVLMVESEAQLLSEDQMLGAVVFGHEQQQVVIQNINELVKEAGKPRWDWQPEPVNEALNARVAALAEARLSDAYRITDKQERYAQVDVIKSETIATLLAEDETLDENELGEILHAIEKNVVRSRVLAGEPRIDGREKDMIRGLDVRTGVLPRTHGSALFTRGETQALVTATLGTARDAQVLDELMGERTDTFLFHYNFPPYSVGETGMVGSPKRREIGHGRLAKRGVLAVMPDMDKFPYTVRVVSEITESNGSSSMASVCGASLALMDAGVPIKAAVAGIAMGLVKEGDNYVVLSDILGDEDHLGDMDFKVAGSRDGISALQMDIKIEGITKEIMQVALNQAKGARLHILGVMEQAINAPRGDISEFA
modifications: left off: Mycobacterium xenopi GyrA intein, C-terminal, cleaved | His8, C-terminal, cleaved
Take B1: under setting [1], the “Mw weight-averaged solute molar mass” value is given as 163,600 Da. Also, the “Mn number-averaged solute molar mass” value under setting [2] is 163,300 Da. In addition, the “Polydispersity (Mn/Mw)” value under setting [4] came out at 1.002. Under setting [5], the “Difference Mn from expected mass” value is on record as 8.7%.

B2: RNase E 583-1061, avi-tagged: avi-tagged RNase E 583-1061 (protein)
chain: SGGEETKPTEQPAPKAEAKPERQQDRRKPRQNNRRDRNERRDTRSERTEGSDNREENRRNRRQAQQQTAETRESRQQAEVTEKARTADEQQAPRRERSRRRNDDKRQAQQEAKALNVEEQSVQETEQEERVRPVQPRRKQRQLNQKVRYEQSVAEEAVVAPVVEETVAAEPIVQEAPAPRTELVKVPLPVVAQTAPEQQEENNADNRDNGGMPRRSRRSPRHLRVSGQRRRRYRDERYPTQSPMPLTVACASPELASGKVWIRYPIVRPQDVQVEEQREQEEVHVQPMVTEVPVAAAIEPVVSAPVVEEVAGVVEAPVQVAEPQPEVVETTHPEVIAAAVTEQPQVITESDVAVAQEVAEQAEPVVEPQEETADIEEVVETAEVVVAEPEVVAQPAAPVVAEVAAEVETVAAVEPEVTVEHNHATAPMTRAPAPEYVPEAPRHSDWQRPTFAFEGKGAAGGHTATHHASAAPARPQPVE
modifications: left off: Avi tag, end not stated, kept
With B2, under setting [3], the “Mn number-averaged solute molar mass” value is 52,930 Da and the “Mw weight-averaged solute molar mass” value is 53,310 Da. Further, the “Difference Mn from expected mass” value under setting [6] came out at 4.7%. Besides, the “Polydispersity (Mn/Mw)” value (buffer B: A w/o bDDM) is recorded as 1.007.
